# Paper PMC5709234
# Values joined by “and” are separate entries in the source; they are usually repeats but may differ in a detail not shown here. Equal entries are not always repeated. Where two headings read alike, the source gives them in different places.
# Assays:
# Test in all cases: native MS
# [1] = molecular target: Alcohol dehydrogenase 1 (S. cerevisiae) (S. cerevisiae) (UniProt P00330)
# [2] = molecular target: Alcohol dehydrogenase 1 (S. cerevisiae) (S. cerevisiae) (UniProt P00330); remark: listed apart in the source
# [3] = molecular target: Trastuzumab light chain, dissociated from the mAb
# [4] = molecular target: Truncated alcohol dehydrogenase 1 (S. cerevisiae) (S. cerevisiae)
# Chain of Truncated alcohol dehydrogenase 1 (S. cerevisiae) (domain or fragment) (P00330 2-348): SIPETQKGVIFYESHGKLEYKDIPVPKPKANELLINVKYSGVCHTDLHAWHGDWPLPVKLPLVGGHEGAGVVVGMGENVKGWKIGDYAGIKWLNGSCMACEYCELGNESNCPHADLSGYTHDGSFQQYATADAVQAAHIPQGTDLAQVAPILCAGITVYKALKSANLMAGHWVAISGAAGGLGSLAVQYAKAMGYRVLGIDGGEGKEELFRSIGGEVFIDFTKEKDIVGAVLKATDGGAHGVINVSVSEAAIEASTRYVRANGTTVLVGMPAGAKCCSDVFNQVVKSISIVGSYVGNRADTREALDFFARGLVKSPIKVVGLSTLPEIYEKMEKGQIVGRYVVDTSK
substance,measurement,setting,value
Alcohol dehydrogenase 1 (S. cerevisiae) (from UniProt P00330 2-348) (enzyme),stoichiometry N,[1],2 and 4
same,percent detected as homotetramer,[2],92%
same,stoichiometry N,[2],4
"Trastuzumab light chain, dissociated from the mAb (domain or fragment)",stoichiometry N,[3],2
Truncated alcohol dehydrogenase 1 (S. cerevisiae) (domain or fragment),stoichiometry N,[4],4
